The values that follow are results of earlier work, collected in publication PMC6535718.

pKd: −log10 of the molar value.

For the data set, the target named is Bfd (Pseudomonas aeruginosa) (UniProt Q9HY80).
Chain of Bfd (Pseudomonas aeruginosa) (Q9HY80 whole entry): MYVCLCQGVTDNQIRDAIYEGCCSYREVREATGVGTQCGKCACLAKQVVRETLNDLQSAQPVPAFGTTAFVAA

Chain of BfrB (Q9HY79 whole entry): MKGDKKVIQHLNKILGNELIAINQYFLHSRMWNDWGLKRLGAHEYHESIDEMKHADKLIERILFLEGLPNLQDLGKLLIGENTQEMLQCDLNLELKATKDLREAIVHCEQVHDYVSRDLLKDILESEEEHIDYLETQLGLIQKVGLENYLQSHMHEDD

BfrB (from UniProt Q9HY79): the pKd was 5.47.

As usually defined, the pKd is the negative decadic logarithm of the Kd, by convention in mol/L.
